From IntAct's records for PubMed 18952841

B1: Protein CBFA2T1 (Homo sapiens), Q06455 (parent)
chain: MISVKRNTWRALSLVIGDCRKKGNFEYCQDRTEKHSTMPDSPVDVKTQSRLTPPTMPPPPTTQGAPRTSSFTPTTLTNGTSHSPTALNGAPSPPNGFSNGPSSSSSSSLANQQLPPACGARQLSKLKRFLTTLQQFGNDISPEIGERVRTLVLGLVNSTLTIEEFHSKLQEATNFPLRPFVIPFLKANLPLLQRELLHCARLAKQNPAQYLAQHEQLLLDASTTSPVDSSELLLDVNENGKRRTPDRTKENGFDREPLHSEHPSKRPCTISPGQRYSPNNGLSYQPNGLPHPTPPPPQHYRLDDMAIAHHYRDSYRHPSHRDLRDRNRPMGLHGTRQEEMIDHRLTDREWAEEWKHLDHLLNCIMDMVEKTRRSLTVLRRCQEADREELNYWIRRYSDAEDLKKGGGSSSSHSRQQSPVNPDPVALDAHREFLHRPASGYVPEEIWKKAEEAVNEVKRQAMTELQKAVSEAERKAHDMITTERAKMERTVAEAKRQAAEDALAVINQQEDSSESCWNCGRKASETCSGCNTARYCGSFCQHKDWEKHHHICGQTLQAQQQGDTPAVSSSVTPNSGAGSPMDTPPAATPRSTTPGTPSTIETTPR

Variants of: B1
Details: with son_human SON

effect of a mutation on the interaction	Variant
disrupting interaction strength	C515S

Variants of: B1
Details: with son_mouse Son

effect of a mutation on the interaction	Variant
disrupting interaction strength	C515S
